Target: Hybrid Rubisco of A. thaliana S2Cr lines (1a3b mutant complemented with S2Cr) (Arabidopsis thaliana; Chlamydomonas reinhardtii) (UniProt O03042)
Experiment: cell-based or functional assay

- share of Rubisco in the pelleted condensate that contained C. reinhardtii SSU (Coomassie-stained gel): 82%
- share of Rubisco localized to the condensate (immunogold TEM, polyclonal Rubisco antibody): 54%
- share of the C. reinhardtii SSU localized to the condensate (immunogold TEM, anti-CrRbcS2): 81%
Substance: EPYC1-dGFP (truncated mature EPYC1 expressed from two cassettes as EPYC1::eGFP and EPYC1::tGFP)

— patent publication US20220282268A1
